Measured values published in CN115746133A (BOAOXIN BIOTECHNOLOGY NANJING CO LTD, dated 2023).

Columns and labels:
[1] = molecular target: T1, 重组人CD47-his蛋白 (ACRO biosystems, cat#CD7-H5227) (human, UniProt Q08722 19-139, biotin-labelled in the ELISA assays (site not stated)); assay: SPR (Biacore T200), antibody captured by goat anti-mouse IgG on a CM5 chip, CD47-his as analyte
T1 construct: Bought protein; also called 人CD47蛋白; 人CD47-生物素; not shown: his tag

[2] = molecular target: T2, 人CD47 (表面过表达人CD47的293F细胞) (human, UniProt Q08722 19-323); assay: flow cytometry on 293F cells overexpressing human CD47
T2 construct: whole, on cells; also called 表面过表达人CD47的稳定细胞系293F
T2 sequence (Q08722 19-323): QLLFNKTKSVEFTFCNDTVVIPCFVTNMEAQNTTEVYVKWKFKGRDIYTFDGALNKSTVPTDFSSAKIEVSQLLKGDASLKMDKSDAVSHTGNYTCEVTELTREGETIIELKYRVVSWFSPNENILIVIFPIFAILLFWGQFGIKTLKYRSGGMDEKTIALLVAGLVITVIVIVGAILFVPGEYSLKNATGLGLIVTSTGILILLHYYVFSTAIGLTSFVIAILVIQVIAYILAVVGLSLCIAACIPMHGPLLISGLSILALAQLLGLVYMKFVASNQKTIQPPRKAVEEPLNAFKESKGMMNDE

T1 sequence (Q08722 19-139 limits assumed): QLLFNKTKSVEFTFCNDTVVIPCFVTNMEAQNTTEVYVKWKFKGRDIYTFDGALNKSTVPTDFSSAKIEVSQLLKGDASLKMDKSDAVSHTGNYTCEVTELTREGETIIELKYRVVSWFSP

binding result [1]: binds | binding result [2]: binds
B1: 小鼠抗人CD47单克隆抗体1H10 (antibody, V domains shown)
VH: EVQLQQSGAELVRSGASVTLSCTASGFKIKDYYMNWVKQRPEQGLEWIGWIGPENGDTENGPKFQDKATMTANTSSNTAFLQLSSLTPEDTAFYYCNAGGRGGFPYWGQGTQVTVST
VL: DILLTQTPLSLPVSLGDQASFSCRSSQDIVHINGKTYLEWYLQKPGQSPKLLIYRVSNRFSGVPDRFSGSGSGTDFTLKISRVEAEDLGVYYCFQGSHVPRTFGGGTKLEIK
notes: also called 本发明的抗体1H10; 本发明的单克隆抗体1H10
